Like-named read-outs stand apart in the source and are kept apart here. Values belong to the binder of their own block, whether it stands above or below them.
How the values were obtained:
[1] = target: T1, biotinylated recombinant human FAP (human, UniProt Q12884 27-760, biotinylated); experiment: SPR (Biacore), biotinylated huFAP on CAP chip, Fab as analyte, 1:1 fit
T1 construct: the Biacore paragraphs only say biotinylated (recombinant) human FAP; also called biotinylated human FAP; recombinant huFAP

[2] = target: T1, biotinylated recombinant human FAP; experiment: SPR (Biacore), biotinylated recombinant FAP
[3] = target: biotinylated recombinant cynomolgus FAP (cynomolgus, UniProt Q12884 27-760 (human entry), limits assumed, biotinylated); experiment: SPR (Biacore), biotinylated recombinant FAP
[4] = target: T2, human Fibroblast Activation Protein (FAP) expressed on cells (human, UniProt Q12884 1-760); experiment: flow cytometry, FAP-transfected HEK cells
T2 construct: cell surface FAP on transfected HEK cells or NIH/3T3-huFAP clone 19 fibroblasts; also called huFAP; human FAP-transfected HEK cells

[5] = target: T3, human DPP-IV expressed on transfected HEK cells (human, UniProt P27487 1-766); experiment: flow cytometry, human DPPIV-transfected HEK cells
T3 construct: whole, on cells; also called dipeptidyl peptidase IV
T3 sequence (P27487 whole entry): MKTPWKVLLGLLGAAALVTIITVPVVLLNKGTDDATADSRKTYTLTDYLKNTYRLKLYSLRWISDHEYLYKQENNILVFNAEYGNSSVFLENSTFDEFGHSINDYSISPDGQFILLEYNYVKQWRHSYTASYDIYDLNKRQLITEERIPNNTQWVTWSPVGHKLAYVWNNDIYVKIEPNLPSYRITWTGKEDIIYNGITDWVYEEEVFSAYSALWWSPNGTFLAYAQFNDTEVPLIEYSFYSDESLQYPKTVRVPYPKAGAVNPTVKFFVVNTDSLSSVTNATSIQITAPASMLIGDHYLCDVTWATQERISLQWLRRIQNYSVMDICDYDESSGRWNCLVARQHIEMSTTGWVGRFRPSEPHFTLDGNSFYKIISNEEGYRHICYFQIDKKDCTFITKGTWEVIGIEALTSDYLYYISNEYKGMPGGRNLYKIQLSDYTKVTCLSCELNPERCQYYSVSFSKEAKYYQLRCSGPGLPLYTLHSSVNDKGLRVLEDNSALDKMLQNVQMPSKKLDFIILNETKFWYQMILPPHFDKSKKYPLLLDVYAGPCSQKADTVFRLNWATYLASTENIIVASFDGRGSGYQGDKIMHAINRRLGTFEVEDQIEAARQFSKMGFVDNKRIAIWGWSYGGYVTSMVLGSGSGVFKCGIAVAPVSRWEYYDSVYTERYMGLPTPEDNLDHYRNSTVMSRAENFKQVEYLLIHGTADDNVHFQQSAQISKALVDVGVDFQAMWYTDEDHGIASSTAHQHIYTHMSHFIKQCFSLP

[6] = target: T4, cynomolgus FAP expressed on cells (cynomolgus); experiment: flow cytometry, FAP-transfected HEK cells
T4 construct: whole, on cells

[7] = target: T2, human Fibroblast Activation Protein …; experiment: flow cytometry, human FAP-transfected HEK cells
[8] = target: T2, human Fibroblast Activation Protein …; experiment: flow cytometry, NIH/3T3-huFAP clone 19 cells
[9] = target: T1, biotinylated recombinant human FAP; experiment: SPR, stressed against unstressed sample, normalised to anti-hu IgG capture
biotinylated human OX40 = target: T5, biotinylated human OX40 (human, UniProt P43489 29-214, limits assumed, biotinylated); experiment: as above
T5 sequence: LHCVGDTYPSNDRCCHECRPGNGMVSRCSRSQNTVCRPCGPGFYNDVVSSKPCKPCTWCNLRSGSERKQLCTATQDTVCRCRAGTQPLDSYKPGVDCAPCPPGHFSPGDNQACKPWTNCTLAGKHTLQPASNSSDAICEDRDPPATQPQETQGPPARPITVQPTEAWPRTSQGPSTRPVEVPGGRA

[10] = target: T6, FcRn (biotinylated, coupled to streptavidin-sepharose); experiment: FcRn affinity chromatography, pH gradient, retention compared to standards
T6 construct: also called neonatal Fc receptor

human OX40 on cells [11] = target: T7, human OX40 on cells (human, UniProt P43489 29-277); experiment: flow cytometry, activated human PBMC gated on CD8+ T cells (OX40 positive), FITC anti-human Fcγ secondary, MFI baseline corrected
T7 construct: also called CD134
T7 sequence: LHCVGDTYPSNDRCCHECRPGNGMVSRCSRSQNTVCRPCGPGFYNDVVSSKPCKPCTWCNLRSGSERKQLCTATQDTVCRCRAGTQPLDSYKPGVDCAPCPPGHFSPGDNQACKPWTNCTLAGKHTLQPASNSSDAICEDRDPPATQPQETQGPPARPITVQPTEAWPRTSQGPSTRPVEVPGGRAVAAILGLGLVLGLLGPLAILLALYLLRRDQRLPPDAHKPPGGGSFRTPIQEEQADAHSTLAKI

human OX40 on cells [12] = target: T7, human OX40 on cells; experiment: flow cytometry, activated human CD4+ T cells
human OX40 on cells [13] = target: T7, human OX40 on cells; experiment: cell-based or functional assay
human OX40 on cells [14] = target: T7, human OX40 on cells; experiment: cell-based or functional assay; remark: listed apart in the source
human OX40 on cells [15] = target: T7, human OX40 on cells; experiment: cell-based or functional assay; remark: listed apart in the source
human OX40 on cells [16] = target: T7, human OX40 on cells; experiment: cell-based or functional assay; remark: listed apart in the source
human OX40 on cells [17] = target: T7, human OX40 on cells; experiment: cell-based or functional assay; remark: listed apart in the source
human OX40 on cells [18] = target: T7, human OX40 on cells; experiment: cell-based or functional assay; remark: listed apart in the source

B1: P1AD9438_Fab, anti-FAP clone 212 Fab (Fab, V domains shown)
VH: EVLLQQSGPELVKPGASVKIACKASGYTLTDYNMDWVRQSHGKSLEWIGDIYPNTGGTIYNQKFKGKATLTIDKSSSTAYMDLRSLTSEDTAVYYCTRFRGIHYAMDYWGQGTSVTVSS
VL: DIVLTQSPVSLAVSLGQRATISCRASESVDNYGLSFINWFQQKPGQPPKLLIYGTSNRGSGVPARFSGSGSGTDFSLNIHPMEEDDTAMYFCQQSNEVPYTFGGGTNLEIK
notes: Fab; also called 212 free Fab
Kd [1]: < 0.01 nM
koff [1]: < 1e-06 s⁻¹
kon [1]: 1.06e+06 M⁻¹ s⁻¹
Kd [2]: 0.12 nM

B2: anti-FAP clone 212, C-terminal Fab fusion construct (Fc fusion)
chain 1: B1 VH
chain 2: not shown
Kd [2]: 0.62 nM
Kd [3]: 0.64 nM
EC50 [4]: 2.8 µg/mL

B3: anti-human FAP clone 212, hybridoma-derived murine antibody (antibody, V domains shown)
VH: B1 VH
VL: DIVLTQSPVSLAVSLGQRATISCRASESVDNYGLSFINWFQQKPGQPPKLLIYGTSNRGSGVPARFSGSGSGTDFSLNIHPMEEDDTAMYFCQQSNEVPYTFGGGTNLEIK
notes: mu IgG1
binding result [5]: no binding (tested: 10 µg/ml)

B5: anti-FAP antibody 4B9 (antibody, V domains shown)
VH: EVQLLESGGGLVQPGGSLRLSCAASGFTFSSYAMSWVRQAPGKGLEWVSAIIGSGASTYYADSVKGRFTISRDNSKNTLYLQMNSLRAEDTAVYYCAKGWFGGFNYWGQGTLVTVSS
VL: EIVLTQSPGTLSLSPGERATLSCRASQSVTSSYLAWYQQKPGQAPRLLINVGSRRATGIPDRFSGSGSGTDFTLTISRLEPEDFAVYYCQQGIMLPPTFGQGTKVEIK
notes: made as in WO 2012/020006; also called FAP clone 4B9; AlexaFluor647-labeled anti FAP antibody 4B9
EC50 [7]: 0.089 µg/mL

The remaining lines, values ahead:

Kd [3]: 0.14 nM
EC50 [4]: 0.12 µg/mL
EC50 [6]: 0.3 µg/mL
EC50 [7]: 0.118 µg/mL
B4: P1AD9438, anti-FAP clone 212 as huIgG1 P329G LALA antibody (antibody, V domains shown)
VH: B1 VH
VL: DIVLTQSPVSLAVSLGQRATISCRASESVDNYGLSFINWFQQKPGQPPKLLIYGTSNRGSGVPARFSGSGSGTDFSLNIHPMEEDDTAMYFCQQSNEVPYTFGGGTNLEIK
notes: human IgG1 with P329G, L234A, L235A; also called 212 IgG

EC50 [8]: 2.52 nM
binding activity [%] after 2 weeks at pH 6.0/40°C [9]: > 90%
binding activity [%] after 2 weeks at pH 7.4/37°C [9]: > 90%
binding activity [%] after 2 weeks at pH 6.0/40°C (biotinylated human OX40): > 90%
binding activity [%] after 2 weeks at pH 7.4/37°C (biotinylated human OX40): > 90%
FcRn affinity (relative retention) [10]: -0.14
EC50 (read off the curve) (human OX40 on cells [11]): ~3 nM
EC50 (human OX40 on cells [12]): 3.62 nM
EC50 of NFκB activation, HeLa_hOx40_NFkB_Luc1, w/ hu FAP+ fibroblasts (human OX40 on cells [13]): 0.24 nM
EC50 of NFκB activation, HeLa_hOx40_NFkB_Luc1, w/o crosslinking (human OX40 on cells [13]): 0.79 nM
AUC of CD25 upregulation compared to reference compound [%] (human OX40 on cells [14]): 100%
EC50 of CD25 upregulation on CD4+ T cells, suboptimal TCR stimulation of human PBMC with FAP+ fibroblasts (human OX40 on cells [14]): 0.04 nM
B6: P1AE8874 OX40(CLC563) x FAP (1G1a) (3 + 1) C-terminal crossfab fusion (bispecific antibody, human IgG1, kappa, L234A L235A)
heavy 1: not shown
heavy 2: not shown
light 1: not shown
light 2: EIVLTQSPATLSLSPGERATLSCRASESVDNYGLSFINWFQQKPGQAPRLLIYGTSNRGSGIPARFSGSGSGTDFTLTISSLEPEDFAVYFCQQSNEVPYTFGGGTKVEIKSSASTKGPSVFPLAPSSKSTSGGTAALGCLVKDYFPEPVTVSWNSGALTSGVHTFPAVLQSSGLYSLSSVVTVPSSSLGTQTYICNVNHKPSNTKVDKKVEPKSC
notes: also called CLC-563 3+1

EC50 [8]: 2.51 nM
EC50 (read off the curve) (human OX40 on cells [11]): ~2 nM
EC50 (human OX40 on cells [12]): 3.19 nM
EC50 of NFκB activation, HeLa_hOx40_NFkB_Luc1, w/ hu FAP+ fibroblasts (human OX40 on cells [13]): 0.21 nM
AUC of CD25 upregulation compared to reference compound [%] (human OX40 on cells [14]): 99%
EC50 of CD25 upregulation on CD4+ T cells, suboptimal TCR stimulation of human PBMC with FAP+ fibroblasts (human OX40 on cells [14]): 0.06 nM
B7: P1AE8871 OX40(CLC563) x FAP (1G1a) (2 + 1) C-terminal crossfab fusion (bispecific antibody, human IgG1, kappa, L234A L235A)
heavy 1: not shown
heavy 2: not shown
light 1: not shown
light 2: B6 light 2
notes: also called CLC-563 2+1

EC50 of NFκB activation, HeLa_hOx40_NFkB_Luc1, w/ hu FAP+ fibroblasts (human OX40 on cells [15]): 0.2 nM
EC50 of NFκB activation, HeLa_hOx40_NFkB_Luc1, w/o crosslinking (human OX40 on cells [15]): 1.9 nM
EC50 [8]: 1.22 nM
EC50 of increased CEACAM5 TCB mediated cytokine secretion of human PBMC with FAP+ fibroblasts (human OX40 on cells [16]): 0.144 nM
binding activity [%] after 2 weeks at pH 6.0/40°C [9]: 99%
binding activity [%] after 2 weeks at pH 7.4/37°C [9]: 95%
binding activity [%] after 2 weeks at pH 6.0/40°C (biotinylated human OX40): 100%
binding activity [%] after 2 weeks at pH 7.4/37°C (biotinylated human OX40): 99%
EC50 of CD25 upregulation on CD4+ T cells, suboptimal TCR stimulation of human PBMC with FAP+ fibroblasts (human OX40 on cells [17]): 0.001 nM
FcRn affinity (relative retention) [10]: -0.1
EC50 (human OX40 on cells [12]): 1.64 nM
EC50 of suppression of TGFβ-induced FoxP3 (FoxP3 MFI) on CD4+ CD25+ Treg cells, FAP-coated beads (human OX40 on cells [18]): 0.11 nM
B8: P1AF6454 OX40(CLC563) x FAP (1G1a_EPKSCD) (3 + 1) C-terminal crossfab fusion (bispecific antibody, human IgG1, kappa, L234A L235A)
heavy 1: not shown
heavy 2: not shown
light 1: not shown
light 2: EIVLTQSPATLSLSPGERATLSCRASESVDNYGLSFINWFQQKPGQAPRLLIYGTSNRGSGIPARFSGSGSGTDFTLTISSLEPEDFAVYFCQQSNEVPYTFGGGTKVEIKSSASTKGPSVFPLAPSSKSTSGGTAALGCLVKDYFPEPVTVSWNSGALTSGVHTFPAVLQSSGLYSLSSVVTVPSSSLGTQTYICNVNHKPSNTKVDKKVEPKSCD
notes: also called CLC-563, D-variant 3+1; 3+1 CLC563/H212-D
